From the supplement of paper PMC11246515
± gives the standard deviation of the averaged measurements.

Assay: total protein half-life in vivo (active degradation + dilution); higher = more stable protein
[1] = E. coli NCM3722 delta-clpP delta-lon delta-hslV, growth: N-lim chemostat, doubling time 6 h
[2] = E. coli NCM3722 delta-clpP, growth: N-lim chemostat, doubling time 6 h
[3] = E. coli NCM3722 delta-hslV, growth: N-lim chemostat, doubling time 6 h
[4] = E. coli NCM3722 delta-lon, growth: N-lim chemostat, doubling time 6 h
[5] = E. coli NCM3722 delta-smpB, growth: N-lim chemostat, doubling time 6 h
[6] = wild type E. coli NCM3722, growth: C-lim chemostat, doubling time 3 h
[7] = wild type E. coli NCM3722, growth: C-lim chemostat, doubling time 6 h
[8] = wild type E. coli NCM3722, growth: C-lim chemostat, doubling time 12 h
[9] = wild type E. coli NCM3722, growth: N-lim chemostat, doubling time 6 h
[10] = wild type E. coli NCM3722, growth: N-lim chemostat, doubling time 12 h
[11] = wild type E. coli NCM3722, growth: P-lim chemostat, doubling time 6 h
[12] = wild type E. coli NCM3722, growth: P-lim chemostat, doubling time 12 h

| Sequence | total protein half-life in vivo [1] [h] | total protein half-life in vivo [2] [h] | total protein half-life in vivo [3] [h] | total protein half-life in vivo [4] [h] | total protein half-life in vivo [5] [h] | total protein half-life in vivo [6] [h] | total protein half-life in vivo [7] [h] | total protein half-life in vivo [8] [h] | total protein half-life in vivo [9] [h] | total protein half-life in vivo [10] [h] | total protein half-life in vivo [11] [h] | total protein half-life in vivo [12] [h] |
| --- | --- | --- | --- | --- | --- | --- | --- | --- | --- | --- | --- | --- |
| MKLAHLGRQALMGVMAVALVAGMSVKSFADEGLLNKVKERGTLLVGLEGTYPPFSFQGDDGKLTGFEVEFAQQLAKHLGVEASLKPTKWDGMLASLDSKRIDVVINQVTISDERKKKYDFSTPYTISGIQALVKKGNEGTIKTADDLKGKKVGVGLGTNYEEWLRQNVQGVDVRTYDDDPTKYQDLRVGRIDAILVDRLAALDLVKKTNDTLAVTGEAFSRQESGVALRKGNEDLLKAVNDAIAEMQKDGTLQALSEKWFGADVTK [P0AEM9] | 6.22 ± 0.52 | 5.74 ± 0.64 | 6.87 ± 0.34 | 7.33 ± 0.21 | 6.54 ± 0.16 | 3.47 ± 0.28 | 6.27 ± 0.63 | 12.5 ± 2.1 | 5.71 ± 0.61 | 14.1 ± 1.8 | 5.95 ± 0.58 | 14.49 ± 0.065 |
| MTLFTTLLVLIFERLFKLGEHWQLDHRLEAFFRRVKHFSLGRTLGMTIIAMGVTFLLLRALQGVLFNVPTLLVWLLIGLLCIGAGKVRLHYHAYLTAASRNDSHARATMAGELTMIHGVPAGCDEREYLRELQNALLWINFRFYLAPLFWLIVGGTWGPVTLMGYAFLRAWQYWLARYQTPHHRLQSGIDAVLHVLDWVPVRLAGVVYALIGHGEKALPAWFASLGDFHTSQYQVLTRLAQFSLAREPHVDKVETPKAAVSMAKKTSFVVVVVIALLTIYGALV [P0AE14] | 6.33 ± 0.16 | 6.29 |  | 5.3 ± 0.39 | 6.02 ± 0.49 | 3.246 ± 0.031 | 5.626 ± 0.0074 | 13.1 ± 3.9 | 6.63 ± 0.9 | 14 ± 2.6 |  |  |
| MKLQLVAVGTKMPDWVQTGFTEYLRRFPKDMPFELIEIPAGKRGKNADIKRILDKEGEQMLAAAGKNRIVTLDIPGKPWDTPQLAAELERWKLDGRDVSLLIGGPEGLSPACKAAAEQSWSLSALTLPHPLVRVLVAESLYRAWSITTNHPYHRE [P0A8I8] | 5.401 ± 0.053 | 3.23 ± 0.13 | 5.99 ± 1.1 | 6.18 ± 1.4 | 3.18 ± 0.43 | 2.78 ± 0.13 | 4.96 ± 0.5 | 9.34 ± 2 | 4.87 ± 0.21 | 8.26 ± 0.7 | 4.57 ± 0.29 | 9.29 ± 0.3 |
| MEIYENENDQVEAVKRFFAENGKALAVGVILGVGALIGWRYWNSHQVDSARSASLAYQNAVTAVSEGKPDSIPAAEKFAAENKNTYGALASLELAQQFVDKNELEKAAAQLQQGLADTSDENLKAVINLRLARVQVQLKQADAALKTLDTIKGEGWAAIVADLRGEALLSKGDKQGARSAWEAGVKSDVTPALSEMMQMKINNLSI | 5.43 ± 0.11 | 5.4 ± 0.35 | 5.99 ± 0.76 | 6.64 ± 0.78 | 5.52 ± 0.16 | 2.83 ± 0.14 | 4.7 ± 0.38 | 10.3 ± 0.96 | 5.8 ± 0.6 | 11.9 ± 0.17 | 4.55 ± 0.6 | 8.84 ± 0.18 |
| MNITPFPTLSPATIDAINVIGQWLAQDDFSGEVPYQADCVILAGNAVMPTIDAACKIARDQQIPLLISGGIGHSTTFLYSAIAQHPHYNTIRTTGRAEATILADIAHQFWHIPHEKIWIEDQSTNCGENARFSIALLNQAVERVHTAIVVQDPTMQRRTMATFRRMTGDNPDAPRWLSYPGFVPQLGNNADSVIFINQLQGLWPVERYLSLLTGELPRLRDDSDGYGPRGRDFIVHVDFPAEVIHAWQTLKHDAVLIEAMESRSLR | 5.66 ± 0.067 | 4.38 ± 0.065 | 3.92 ± 0.042 | 4.66 ± 0.2 | 3.96 ± 0.27 | > 4 | 5.74 ± 0.29 | 10.9 ± 1.3 | 4.35 ± 0.28 | 6.81 ± 1.1 | 6.023 ± 0.049 | 11.4 ± 0.21 |
| MTLTLNRQLLTSRQILVAFSGGLDSTVLLHQLVQWRTENPGVALRAIHVHHGLSANADAWVTHCENVCQQWQVPLVVERVQLAQEGLGIEAQARQARYQAFARTLLPGEVLVTAQHLDDQCETFLLALKRGSGPAGLSAMAEVSEFAGTRLIRPLLARTRGELVQWARQYDLRWIEDESNQDDSYDRNFLRLRVVPLLQQRWPHFAEATARSAALCAEQESLLDELLADDLAHCQSPQGTLQIVPMLAMSDARRAAIIRRWLAGQNAPMPSRDALVRIWQEVALAREDASPCLRLGAFEIRRYQSQLWWIKSVTGQSENIVPWQTWLQPLELPAGLGSVQLNAGGDIRPPRADEAVSVRFKAPGLLHIVGRNGGRKLKKIWQELGVPPWLRDTTPLLFYGETLIAAAGVFVTQEGVAEGENGVSFVWQKTLS | 5.68 ± 0.23 | 5.01 ± 0.08 | 4.74 ± 0.42 | 4.89 ± 0.25 | 4.44 ± 0.24 |  | 5.78 ± 0.29 | 11 ± 0.83 | 5.27 ± 0.28 | 8.42 ± 0.81 | 6.31 ± 0.15 | 11.6 ± 1 |
| MSSHPYVTQQNTPLADDTTLMSTTDLQSYITHANDTFVQVSGYTLQELQGQPHNMVRHPDMPKAAFADMWFTLKKGEPWSGIVKNRRKNGDHYWVRANAVPMVREGKISGYMSIRTRATDEEIAAVEPLYKALNAGRTSKRIHKGLVVRKGWLGKLPSLPLRWRARGVMTLMFILLAAMLWFVAAPVVTYILCALVVLLASACFEWQIVRPIENVAHQALKVATGERNSVEHLNRSDELGLTLRAVGQLGLMCRWLINDVSSQVSSVRNGSETLAKGTDELNEHTQQTVDNVQQTVATMNQMAASVKQNSATASAADKLSITASNAAVQGGEAMTTVIKTMDDIADSTQRIGTITSLINDIAFQTNILALNAAVEAARAGEQGKGFAVVAGEVRHLASRSANAANDIRKLIDASADKVQSGSQQVHAAGRTMEDIVAQVKNVTQLIAQISHSTLEQADGLSSLTRAVDELNLITQKNAELVEESAQVSAMVKHRASRLEDAVTVLH |  |  |  |  |  | 2.72 ± 0.7 |  |  |  |  |  |  |
| MMDSLRTAANSLVLKIIFGIIIVSFILTGVSGYLIGGGNNYAAKVNDQEISRGQFENAFNSERNRMQQQLGDQYSELAANEGYMKTLRQQVLNRLIDEALLDQYARELKLGISDEQVKQAIFATPAFQVDGKFDNSRYNGILNQMGMTADQYAQALRNQLTTQQLINGVAGTDFMLKGETDELAALVAQQRVVREATIDVNALAAKQPVTEQEIASYYEQNKNNFMTPEQFRVSYIKLDAATMQQPVSDADIQSYYDQHQDQFTQPQRTRYSIIQTKTEDEAKAVLDELNKGGDFAALAKEKSADIISARNGGDMGWLEDATIPDELKNAGLKEKGQLSGVIKSSVGFLIVRLDDIQPAKVKSLDEVRDDIAAKVKHEKALDAYYALQQKVSDAASNDTESLAGAEQAAGVKATQTGWFSKDNLPEELNFKPVADAIFNGGLVGENGAPGINSDIITVDGDRAFVLRISEHKPEAVKPLADVQEQVKALVQHNKAEQQAKVDAEKLLVDLKAGKGAEAMQAAGLKFGEPKTLSRSGRDPISQAAFALPLPAKDKPSYGMATDMQGNVVLLALDEVKQGSMPEDQKKAMVQGITQNNAQIVFEALMSNLRKEAKIKIGDALEQQ [P0ADY1] | 6.92 ± 0.99 | 6.533 ± 0.039 | 5.89 ± 0.078 | 6.39 ± 0.26 | 6.15 ± 0.67 | 3.05 ± 0.23 | 5.96 ± 0.096 | 12.7 ± 1.2 | 6.17 ± 0.25 | 12.8 ± 1.7 | 5.92 ± 0.088 | 12.4 ± 0.2 |
| MPNITWCDLPEDVSLWPGLPLSLSGDEVMPLDYHAGRSGWLLYGRGLDKQRLTQYQSKLGAAMVIVAAWCVEDYQVIRLAGSLTARATRLAHEAQLDVAPLGKIPHLRTPGLLVMDMDSTAIQIECIDEIAKLAGTGEMVAEVTERAMRGELDFTASLRSRVATLKGADANILQQVRENLPLMPGLTQLVLKLETLGWKVAIASGGFTFFAEYLRDKLRLTAVVANELEIMDGKFTGNVIGDIVDAQYKAKTLTRLAQEYEIPLAQTVAIGDGANDLPMIKAAGLGIAYHAKPKVNEKAEVTIRHADLMGVFCILSGSLNQK [P0AGB0] | 5.32 ± 0.097 | 5.09 ± 0.32 | 5.09 ± 0.31 | 5.43 ± 0.31 | 5.08 ± 0.26 | 3.01 ± 0.1 | 5.07 ± 0.26 | 10.3 ± 0.85 | 4.819 ± 0.032 | 8.79 ± 0.6 | 5.83 ± 0.23 | 11.5 ± 0.32 |
| MRVVILGSGVVGVASAWYLNQAGHEVTVIDREPGAALETSAANAGQISPGYAAPWAAPGVPLKAIKWMFQRHAPLAVRLDGTQFQLKWMWQMLRNCDTSHYMENKGRMVRLAEYSRDCLKALRAETNIQYEGRQGGTLQLFRTEQQYENATRDIAVLEDAGVPYQLLESSRLAEVEPALAEVAHKLTGGLQLPNDETGDCQLFTQNLARMAEQAGVKFRFNTPVDQLLCDGEQIYGVKCGDEVIKADAYVMAFGSYSTAMLKGIVDIPVYPLKGYSLTIPIAQEDGAPVSTILDETYKIAITRFDNRIRVGGMAEIVGFNTELLQPRRETLEMVVRDLYPRGGHVEQATFWTGLRPMTPDGTPVVGRTRFKNLWLNTGHGTLGWTMACGSGQLLSDLLSGRTPAIPYEDLSVARYSRGFTPSRPGHLHGAHS [P0A6J5] | 2.86 ± 0.088 | 1.88 ± 0.14 | 2.16 ± 0.24 | 2.06 | 1.95 ± 0.12 | 1.01 ± 0.16 | 1.65 ± 0.11 | 2.68 ± 0.58 | 2.04 ± 0.17 | 3.35 ± 0.27 | 2.27 ± 0.23 | 4.77 ± 0.97 |
| MKTERILGALYGQALGDAMGMPSELWPRSRVKAHFGWIDRFLPGPKENNAACYFNRAEFTDDTSMALCLADALLEREGKIDPDLIGRNILDWALRFDAFNKNVLGPTSKIALNAIRDGKPVAELENNGVTNGAAMRVSPLGCLLPARDVDSFIDDVALASSPTHKSDLAVAGAVVIAWAISRAIDGESWSAIVDSLPSIARHAQQKRITTFSASLAARLEIALKIVRNADGTESASEQLYQVVGAGTSTIESVPCAIALVELAQTDPNRCAVLCANLGGDTDTIGAMATAICGALHGVNAIDPALKAELDAVNQLDFNRYATALAKYRQQREAV | 4.09 ± 0.27 | 3.33 ± 0.15 | 3.21 ± 0.037 | 3.64 ± 0.55 | 3.4389 ± 0.00072 | 2.89 ± 0.35 | 5.04 ± 0.58 | 9.45 ± 0.66 | 3.36 ± 0.19 | 4.91 ± 0.38 | 5.45 ± 0.4 | 10.4 ± 0.37 |
